Test results from PMC8203622, “Tight docking of membranes before fusion represents a metastable state with unique properties” (Nature Communications, 2021).

Target: T1, syntaxin-1A (183–288) (Rattus norvegicus, UniProt P32851 183-288)
T1 construct: syntaxin-1A, Rattus norvegicus, residues 183-288
Assay: assembly of a complex by mixing, isolated by ion exchange chromatography (MonoQ); purified proteins mixed overnight at 4 °C in a buffer containing CHAPS, then MonoQ
Conditions: both partners purified

T1 sequence (P32851 183-288): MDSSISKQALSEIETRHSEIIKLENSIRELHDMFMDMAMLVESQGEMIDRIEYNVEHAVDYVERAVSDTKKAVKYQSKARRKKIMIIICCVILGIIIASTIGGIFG

B1: synaptobrevin-2 fragment (49–96) (domain or fragment, Rattus norvegicus, UniProt P63045 49-96, looked up)
chain: NVDKVLERDQKLSELDDRADALQAGASQFETSAAKLKRKYWWKNLKMM
notes: synaptobrevin-2, Rattus norvegicus, residues 49-96; also called synaptobrevin fragment 49–96
B1: binds.
